The text below walks through data of patent publication US20150147767A1.

In assay [1] the target is surface of J774 A1 macrophages (BAG3 binding partner not identified) (murine). Put plainly: flow cytometry on J774 A1 cells, negative control. On the technique in general: In flow cytometry, cells or beads pass a laser one at a time.
Assay [2] addresses FITC-conjugated BAG3 recombinant protein (human) (UniProt O95817). The assay is described as follows: flow cytometry, blocking of 14 nM FITC-rBAG3 binding to J774 A1 cells by 420 nM F(ab′)2; negative control.
Chain of UniProt O95817 (O95817 whole entry): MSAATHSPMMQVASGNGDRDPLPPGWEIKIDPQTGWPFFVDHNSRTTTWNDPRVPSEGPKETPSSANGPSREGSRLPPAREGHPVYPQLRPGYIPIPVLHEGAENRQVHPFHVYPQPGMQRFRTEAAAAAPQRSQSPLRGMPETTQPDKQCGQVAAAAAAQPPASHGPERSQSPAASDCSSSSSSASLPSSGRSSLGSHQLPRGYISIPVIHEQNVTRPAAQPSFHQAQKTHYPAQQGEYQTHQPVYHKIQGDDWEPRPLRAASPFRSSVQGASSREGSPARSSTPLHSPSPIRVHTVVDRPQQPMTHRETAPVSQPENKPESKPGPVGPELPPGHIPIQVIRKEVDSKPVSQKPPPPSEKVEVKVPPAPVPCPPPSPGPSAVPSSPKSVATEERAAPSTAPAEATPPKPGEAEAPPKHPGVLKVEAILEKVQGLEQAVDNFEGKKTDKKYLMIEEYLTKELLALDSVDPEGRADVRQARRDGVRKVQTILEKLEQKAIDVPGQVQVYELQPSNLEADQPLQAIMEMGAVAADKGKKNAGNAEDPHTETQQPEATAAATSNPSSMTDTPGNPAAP
The target in assay [3] is surface of J774 A1 macrophages (BAG3 binding partner not identified) (murine). The assay is described as follows: flow cytometry on J774 A1 cells, 14 nM FITC-rBAG3.
Assay [4] shares this target. Put plainly: flow cytometry on J774 A1 cells.
Assay [5] shares this target. Put plainly: flow cytometry competition on J774 A1 cells; 625 nM peptide, 14 nM FITC-rBAG3 as competitor.

The molecule “FITC-conjugated BSA (albumin from bovine serum) (from UniProt P02769 25-607)” displayed a % of positive cells in assay [1] of 4.04%.

On to “F(ab′)2 fragments from rabbit IgG (antibody)”, for which, in assay [2], the % inhibition (as a rule, the percentage by which the read-out fell short of the control) was determined as 0% and the % of positive cells turned out to be 14.7%.

“F(ab′)2 fragments from mouse IgG (antibody)”: in assay [2], the % inhibition is 0% and the % of positive cells amounted to 12.3%.

“FITC-conjugated BAG3 recombinant protein (from UniProt O95817 1-575)” returned a % of positive cells in assay [3] of 15.7%. This molecule also came in with a % of positive cells, FITC-BSA subtracted in assay [4] of 11.1%.

In assay [5], NPSSMTDTPGNPAAP [BAG3 peptide 4] had a % inhibition of 93.8% and a % of positive cells of 0.68%.

In assay [5], DRDPLPPGWEIKIDPQ [BAG3 peptide 1] returned a % inhibition of 98.4% and a % of positive cells of 0.18%.

In assay [5], DKGKKNAGNAEDPHT [BAG3 peptide 3] registered a % inhibition of 47.2% and a % of positive cells of 5.86%.

In assay [5], SSPKSVATEERAAPS [BAG3 peptide 2] registered a % inhibition of 89.1% and a % of positive cells of 1.21%.
